The values below come from article PMC2683190.

The target in this experiment is GST-LIF05 (mutant human LIF, LIFR antagonist, as glutathione-S-transferase fusion protein) (human) (UniProt P15018). Description: SPR. (In general: Surface plasmon resonance follows binding to a sensor surface in real time, without labels.)
Sequence of GST-LIF05 (mutant human LIF, LIFR antagonist, as glutathione-S-transferase fusion protein) (human) (P15018 23-202, change not shown): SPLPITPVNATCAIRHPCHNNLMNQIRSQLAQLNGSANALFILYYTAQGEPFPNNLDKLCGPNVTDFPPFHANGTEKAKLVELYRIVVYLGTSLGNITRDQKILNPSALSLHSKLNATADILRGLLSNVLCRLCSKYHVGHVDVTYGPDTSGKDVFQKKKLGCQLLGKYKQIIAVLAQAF

B1: soluble LIFR (leukemia inhibitory factor receptor) (receptor)
chain: QKKGAPHDLKCVTNNLQVWNCSWKAPSGTGRGTDYEVCIENRSRSCYQLEKTSIKIPALSHGDYEITINSLHDFGSSTSKFTLNEQNVSLIPDTPEILNLSADFSTSTLYLKWNDRGSVFPHRSNVIWEIKVLRKESMELVKLVTHNTTLNGKDTLHHWSWASDMPLECAIHFVEIRCYIDNLHFSGLEEWSDWSPVKNISWIPDSQTKVFPQDKVILVGSDITFCCVSQEKVLSALIGHTNCPLIHLDGENVAIKIRNISVSASSGTNVVFTTEDNIFGTVIFAGYPPDTPQQLNCETHDLKEIICSWNPGRVTALVGPRATSYTLVESFSGKYVRLKRAEAPTNESYQLLFQMLPNQEIYNFTLNAHNPLGRSQSTILVNITEKVYPHTPTSFKVKDINSTAVKLSWHLPGNFAKINFLCEIEIKKSNSVQEQRNVTIKGVENSSYLVALDKLNPYTLYTFRIRCSTETFWKWSKWSNKKQHLTTEASPSKGPDTWREWSSDGKNLIIYWKPLPINEANGKILSYNVSCSSDEETQSLSEIPDPQHKAEIRLDKNDYIISVVAKNSVGSSPPSKIASMEIPNDDLKIEQVVGMGKGILLTWHYDPNMTCDYVIKWCNSSRSEPCLMDWRKVPSNSTETVIESDEFRPGIRYNFFLYGCRNQGYQLLRSMIGYIEELAPIVAPNFTVEDTSADSILVKWEDIPVEELRGFLRGYLFYFGKGERDTSKMRVLESGRSDIKVKNITDISQKTLRIADLQGKTSYHLVLRAYTDGGVGPEKSMYVVTKENS
For the molecule B1, the Kd (usually the free concentration of one partner at which half of the binding sites on the other are occupied at equilibrium, for simple one-to-one binding) was 4.72 nM; the koff (in general, the rate constant with which the complex falls apart) was found to be 0.00265 s⁻¹; the association rate constant (kon) (in general, the second-order rate constant of association) turned out to be 562000 M⁻¹ s⁻¹.
